Source: patent publication US20220154138A1, “METHOD OF PRODUCING PLACENTA-LIKE ORGANOID, PLACENTA-LIKE ORGANOID, AND PRODUCTION OR TEST KIT” (FUJIFILM Corporation, priority 2020, published 2022)

Key:
Format in all cases: cell-based, human
[1] = tested on: iPS cells; assay: Two-dimensional adhesion culture with BMP4, hCG quantified by i-STAT cartridge Total β-hCG
Procedure: (§1) In the i-STAT cartridge Total β-hCG, about 17 μL of the culture supernatant was sampled, injected into the reagent cartridge, and inserted into the single-purpose analyzer.
Two-dimensional adhesion culture was carried out by the following method. Laminin (iMatrix-511: Nippi. Inc.) was diluted with Dulbecco's phosphate buffered saline (DPBS), 1 mL thereof per well was dispensed into a 6-well plate (Falcon TC: #353046), and the plate was allowed to stand in a 37° C. incubator for 1 hour to be coated with laminin. 2 mL of an iPS cell medium (StemFit (registered trade name) AK02N: Ajinomoto Co., Inc.) was dispensed into the laminin-coated plate in a state where a BMP4 solution was not added, iPS cells (4×10^4 cells/well) were seeded therein, the culture was continued while appropriately changing the medium, and from the 4th day of culture, 2 mL of an iPS cell culture medium (StemFit (registered trade name) AK02N: Ajinomoto Co., Inc.) to which 2 μL of a solution containing 50 μg/mL BMP4 (R&D Systems Inc.) solution had been added so that the BMP4 concentration was to be 50 ng/mL was used at the time of the medium exchange.
(§2) On the other hand, three-dimensional suspension culture was started at the same time using the same iPS cells used in the two-dimensional culture adhesion culture. 30 mL of an iPS cell medium (StemFit (registered trade name) AK02N: Ajinomoto Co., Inc.) was dispensed into a 30 mL volume spinner flask (ABLE Corporation), and then iPS cells (1.3×10^6 cells/mL) were seeded. In the same manner as in the two-dimensional adhesion culture, BMP4 was not added at the start of culture, but a medium to which a solution containing 50 μg/mL BMP4 (R&D Systems Inc.) was added at the same proportion as that used in the two-dimensional adhesion culture was used after the 4th day of culture. After the start of culture, the addition of BMP4 to the medium was continued until the 14th day of culture while the medium was exchanged every 3 to 4 days, and thereafter, a medium to which BMP4 had not been added was used. In three-dimensional suspension culture, stirring culture was continued in a spinner flask throughout the culture period. While continuing the two-dimensional adhesion culture and the three-dimensional suspension culture, the culture supernatant was appropriately sampled after the 7th day of culture, and the amount of hCG produced was quantified using the i-STAT cartridge Total β-hCG. Since there are differences in the number of cells that can be seeded at the start of culture and the adding amount of medium between the two-dimensional culture and the three-dimensional culture, there are differences in the hCG concentration and the total hCG production in the culture supernatant, and thus it is not possible to simply compare them. For this reason, the hCG quantification value on the 7th day of culture after the start of differentiation induction into the placenta was set to 100, and the ratio of the hCG quantification value on the subsequent culture measurement day to the hCG quantification value on the 7th day of culture was calculated. That is, in a case where the hCG quantification value on the 7th day is set to 100 in each of the two-dimensional and three-dimensional culture forms, the subsequent changes after the 7th day in the hCG production amount are shown in FIG. 2. It was confirmed that in the two-dimensional culture, the decrease in hCG production amount is particularly remarkable after the 15th day of culture, whereas in the three-dimensional culture, the hCG continues to be produced after the 15th day, and even on the 25th day of culture, 10 times or more of the hCG production is maintained as compared with the 7th day of culture.

[2] = tested on: iPS cells; assay: Two-dimensional adhesion culture of iPS cells with BMP4, hCG in culture supernatant by GONASTICK W; conditions: 2D adhesion culture, StemFit, BMP4 present
Procedure: In GONASTICK W, about 0.5 to 1 mL of the culture supernatant was sampled, and a test strip was soaked therein. After the soaking was completed, the determination surface of the test strip was placed to face upward and allowed to stand until the culture supernatant passed through the determination window and reached the reaction end window. […] The detection sensitivity of the present examination reagent is 25 IU/L, and a blue control line corresponding to an hCG concentration of 1,000 IU/L is printed in advance on the determination window, which can be visually compared with the determination line.
In a case where a line equal to or more blue-colored than the control line was visually observed on the determination line, it was judged as positive (+).
In a case where the line was not visually observed on the determination line, it was determined to be negative (−).
In a case where a line that was less blue-colored than the control line but was visible was visually observed on the determination line, it was determined to be (+/−).
Laminin (iMatrix-511: Nippi. Inc.) was diluted with Dulbecco's phosphate buffered saline (DPBS), 1 mL thereof per well was dispensed into a 6-well plate (Falcon TC: #353046), and the plate was allowed to stand in a 37° C. incubator for 1 hour to be coated with laminin. 2 mL of an iPS cell medium (StemFit (registered trade name) AK02N: Ajinomoto Co., Inc.) to which 2 μL of a solution containing 50 μg/mL BMP4 (R&D Systems Inc.) had been added was dispensed into the laminin-coated plate, and iPS cells (4×10^4 cells/well) were seeded therein. The culture was continued while appropriately changing the medium, and the hCG contained in the culture supernatant was detected using a drug for in vitro diagnosis for the pregnancy test, GONASTICK W (MOCHIDA PHARMACEUTICAL Co., Ltd.), whereby the differentiation induction into a placental tissue was checked. As a negative control, the same culture was carried out using a medium to which BMP4 had not been added. The hCG was started to be produced on the 7th day of culture; however, the hCG production stopped around the 18th day (Table 1).

[3] = tested on: iPS cells; assay: Three-dimensional suspension culture with BMP4, hCG quantified by i-STAT cartridge Total β-hCG
Procedure: as §1, §2

[4] = Three-dimensional culture, day 10
[5] = Three-dimensional culture, day 14
[6] = Three-dimensional culture, day 17
[7] = Three-dimensional culture, day 19
[8] = Three-dimensional culture, day 21
[9] = Three-dimensional culture, day 25

B1: BMP4: bone morphogenetic protein BMP4 (R&D Systems Inc.), added to iPS cell medium at 50 ng/mL to induce differentiation (protein, UniProt P12644 293-408, looked up)
Bone morphogenetic protein 4: SPKHHSQRARKKNKNCRRHSLYVDFSDVGWNDWIVAPPGYQAFYCHGDCPFPLADHLNSTNHAIVQTLVNSVNSSIPKACCVPTELSAISMLYLDEYDKVVLKNYQEMVVEGCGCR
hCG production ([1]; BMP4 50 ng/mL from day 4, day 7): 6.6 IU | hCG* production (hCG production on each of culture days/hCG production amount on 7th day) × 100 ([1]; day 7): 100 AU | hCG production ([1]; day 11): 8.0 IU | hCG* production (relative to 7th day × 100) ([1]; day 11): 120 AU | hCG production ([1]; day 15): 5.0 IU | hCG* production (relative to 7th day × 100) ([1]; day 15): 75 AU | hCG production ([1]; day 18): 4.1 IU | hCG* production (relative to 7th day × 100) ([1]; day 18): 62 AU | hCG production ([1]; day 22): 1.4 IU | hCG* production (relative to 7th day × 100) ([1]; day 22): 20 AU | hCG production ([1]; day 25): 1.6 IU | hCG* production (relative to 7th day × 100) ([1]; day 25): 25 AU | hCG production ([2]; day 7): + (a line equal to or more blue-colored than the control line was visually observed on the determination line, it was judged as positive (+)) | hCG production ([2]; day 11): + (a line equal to or more blue-colored than the control line was visually observed on the determination line, it was judged as positive (+)) | hCG production ([2]; day 15): + (a line equal to or more blue-colored than the control line was visually observed on the determination line, it was judged as positive (+)) | hCG production ([2]; day 18): +/− (a line that was less blue-colored than the control line but was visible was visually observed on the determination line, it was determined to be (+/−)) | hCG production ([2]; day 21): − (the line was not visually observed on the determination line, it was determined to be negative (−)) | hCG production ([3]; Three-dimensional culture, BMP4 day 4 to 14, day 7): 1.6 IU | hCG* production (hCG production on each of culture days/hCG production amount on 7th day) × 100 ([3]; Three-dimensional culture, day 7): 100 AU | hCG production [3, 4]: 61 IU | hCG* production (relative to 7th day × 100) [3, 4]: 3,936 AU | hCG production [3, 5]: 79 IU | hCG* production (relative to 7th day × 100) [3, 5]: 5,044 AU | hCG production [3, 6]: 120 IU | hCG* production (relative to 7th day × 100) [3, 6]: 7,692 AU | hCG production [3, 7]: 120 IU | hCG* production (relative to 7th day × 100) [3, 7]: 7,692 AU | hCG production [3, 8]: 54 IU | hCG* production (relative to 7th day × 100) [3, 8]: 3,465 AU | hCG production [3, 9]: 23 IU | hCG* production (relative to 7th day × 100) [3, 9]: 1,498 AU | hCG production on 25th day as compared with the 7th day of culture ([3]; three-dimensional culture): ≥ 10 times
